Laboratory results: US20260258155A1 (TRIVENI BIO, published 2026)
Changes are numbered by the printed parent chain. Values belong to the binder of their own block, whether it stands above or below them.

Columns and labels:
[1] = target: T1, mouse KLK7 (mKLK7) (mouse, UniProt Q91VE3 26-249); experiment: cell-based or functional assay
[2] = target: T1, mouse KLK7 (mKLK7); experiment: Biacore SPR, antibody captured on Protein A chip, single-cycle kinetics, 25 C
Description: (§1) All screening assays were performed at 25 C. The running buffer used was 20 mM HEPES, 300 mM NaCl, 0.01% Tween-20, pH 7.5. Antibodies (1 ug/mL) were captured on Fc2-4 of a Series S ProteinA Sensor Chip (Cytiva) flowing at 10 ul/mL for 30 s. Kinetics measurements were made in single-cycle kinetics mode with a series of 4-5 concentrations with top concentration of 25-100 nM and serial dilution 4-fold. Contact time was typically 300 s and dissociation time ranged from 1800-3600 s. Flow rate of 30 ul/mL was typically used. The sensor chip was regenerated with 10 mM glycine, pH 1.5 with a contact time of 30 s flowing at 50 ul/mL.

[3] = target: human KLK7 (hKLK7), active form (human, UniProt P49862 30-253); experiment: cell-based or functional assay
Sequence of human KLK7 (hKLK7), active form (P49862 30-253): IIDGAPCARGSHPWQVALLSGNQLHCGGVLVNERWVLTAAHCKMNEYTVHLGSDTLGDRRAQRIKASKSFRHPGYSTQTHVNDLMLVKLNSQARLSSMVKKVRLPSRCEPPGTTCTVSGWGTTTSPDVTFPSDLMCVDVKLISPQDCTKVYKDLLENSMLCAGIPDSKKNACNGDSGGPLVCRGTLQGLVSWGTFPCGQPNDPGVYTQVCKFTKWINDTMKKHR

[4] = target: mouse KLK5 (mKLK5) (mouse); experiment: cell-based or functional assay
[5] = target: human KLK5 (hKLK5), active form (human, UniProt Q9Y337 67-293); experiment: cell-based or functional assay
[6] = target: T2, mouse KLK5 (mKLK5) (mouse); experiment: Biacore SPR, antibody captured on Protein A chip, single-cycle kinetics, 25 C
T2 construct: Enzymatically active in the protease assay
Description: as §1

T1 sequence (Q91VE3 26-249 limits assumed): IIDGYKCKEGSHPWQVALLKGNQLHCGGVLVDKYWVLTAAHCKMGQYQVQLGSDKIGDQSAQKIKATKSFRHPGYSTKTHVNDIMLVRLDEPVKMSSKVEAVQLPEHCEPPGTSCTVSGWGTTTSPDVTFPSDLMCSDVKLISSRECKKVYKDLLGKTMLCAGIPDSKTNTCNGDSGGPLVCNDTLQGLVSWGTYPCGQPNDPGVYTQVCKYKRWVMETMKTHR

B1: KLK7-L2-Ab2 (antibody, V domains shown)
VH: QVQLQESGPGLVKPSQTLSLTCTVSGGSISSGGYYWHWIRQHPGKGLEWIGYIYRSGYTYYNPSLKSRVTISVDTSKNQFSLKLSSVTAADTAVYYCARAKQLTTHRYFDYWGQGTLVTVSS
VL: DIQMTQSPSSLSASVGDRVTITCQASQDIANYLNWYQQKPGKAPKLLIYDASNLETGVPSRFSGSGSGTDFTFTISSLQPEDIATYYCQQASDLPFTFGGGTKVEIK
mKLK7 IC50 (protease inhibition) [1]: 2.31 nM
mKLK7 IC90 (protease inhibition) [1]: 6.01 nM
Kd [2]: 0.0357 nM

B4: KLK7-L2-Ab3 (antibody, V domains shown)
VH: B1 VH with Y35S, H37N, Y52S, Y58S, Q102A, F109V
VL: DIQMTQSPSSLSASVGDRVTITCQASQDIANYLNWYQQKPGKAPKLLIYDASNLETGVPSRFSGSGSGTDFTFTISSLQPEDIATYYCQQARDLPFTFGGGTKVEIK
mKLK7 IC50 (protease inhibition) [1]: 1.49 nM
mKLK7 IC90 (protease inhibition) [1]: 4.88 nM
hKLK7 IC50 (protease inhibition) [3]: 0.833 nM
hKLK7 IC90 (protease inhibition) [3]: 3.39 nM

B5: KLK7-L2-Ab1 (antibody, V domains shown)
VH: B1 VH with H37S, Y52S, R55Y, Y58S
VL: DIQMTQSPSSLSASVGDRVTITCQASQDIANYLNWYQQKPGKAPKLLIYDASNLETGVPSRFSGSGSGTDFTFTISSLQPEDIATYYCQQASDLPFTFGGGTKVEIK
mKLK7 IC90 (protease inhibition) [1]: 5.63 nM
Kd [2]: 0.0796 nM

B6: KLK7-L5-Ab1 (antibody, V domains shown)
VH: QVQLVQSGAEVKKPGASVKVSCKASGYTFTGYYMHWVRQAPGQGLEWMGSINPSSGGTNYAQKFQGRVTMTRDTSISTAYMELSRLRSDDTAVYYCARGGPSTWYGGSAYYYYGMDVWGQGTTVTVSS
VL: EIVLTQSPGTLSLSPGERATLSCRASQSVSSDYLAWYQQKPGQAPRLLIYGASSRATGIPDRFSGSGSGTDFTLTISRLEPEDFAVYYCQQYANLWTFGGGTKVEIK
mKLK7 IC50 (protease inhibition) [1]: 15 nM
mKLK7 IC90 (protease inhibition) [1]: 67.3 nM
Kd [2]: 4.86 nM

B8: KLK5-L2-Ab4 (antibody, V domains shown)
VH: QLQLQESGPGLVKPSETLSLTCTVSGGSIPSSSYYWSWIRQPPGKGLEWIGNIYYSGSTYYNPSLKSRVTISVDTSKNQFSLKLSSVTAADTAVYYCARGEYDRSYYYWGLDVWGQGTTVTVSS
VL: not shown
mKLK5 IC50 (protease inhibition) [4]: 1.68 nM
mKLK5 IC90 (protease inhibition) [4]: 15.6 nM
hKLK5 IC50 (protease inhibition) [5]: 2.04 nM
hKLK5 IC90 (protease inhibition) [5]: 9.86 nM
Kd [6]: 0.47 nM

B9: KLK5-L2-Ab3 (antibody, V domains shown)
VH: B8 VH with Y108F, L111M
VL: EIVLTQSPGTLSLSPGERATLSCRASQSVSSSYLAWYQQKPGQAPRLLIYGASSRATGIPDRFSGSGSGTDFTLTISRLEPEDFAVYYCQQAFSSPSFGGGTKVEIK
mKLK5 IC50 (protease inhibition) [4]: 1.82 nM
mKLK5 IC90 (protease inhibition) [4]: 29.5 nM
hKLK5 IC50 (protease inhibition) [5]: 2.26 nM
hKLK5 IC90 (protease inhibition) [5]: 10.2 nM
Kd [6]: 0.59 nM

B10: KLK7-L1-Ab4 (antibody, V domains shown)
VH: QVQLVQSGAEVKKPGASVKVSCKASGYTFTSEGIHWVRQAPGQGLEWMGSISASSGDTNYAQKLQGRVTMTTDTSTSTAYMELRSLRSDDTAVYYCARAAGYGARHWYFDLWGQGTMVTVSS
VL: DIQMTQSPSSLSASVGDRVTITCRASQSISSYLNWYQQKPGKAPKLLIYGASSLQSGVPSRFSGSGSGTDFTLTISSLQPEDFATYYCDQFYSTPPITFGGGTKVEIK
mKLK7 IC50 (protease inhibition) [1]: 1.42 nM
mKLK7 IC90 (protease inhibition) [1]: 7.12 nM
hKLK7 IC50 (protease inhibition) [3]: 0.914 nM
hKLK7 IC90 (protease inhibition) [3]: 3.67 nM
Kd [2]: 0.0107 nM

Results, then the binder that gave them:

mKLK7 IC50 (protease inhibition) [1]: 1.63 nM
mKLK7 IC90 (protease inhibition) [1]: 6.51 nM
Kd [2]: 0.0101 nM
B2: KLK7-L2-Ab4 (antibody, V domains shown)
VH: B1 VH with Y35S, H37N, Y52S, Y58S, T105L, H106T
VL: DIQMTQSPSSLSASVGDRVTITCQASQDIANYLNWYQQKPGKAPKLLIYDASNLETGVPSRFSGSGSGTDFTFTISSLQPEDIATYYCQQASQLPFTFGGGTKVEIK

mKLK7 IC50 (protease inhibition) [1]: 1.91 nM
mKLK7 IC90 (protease inhibition) [1]: 6.52 nM
Kd [2]: 0.018 nM
B3: KLK7-L2-Ab5 (antibody, V domains shown)
VH: B1 VH with H106S
VL: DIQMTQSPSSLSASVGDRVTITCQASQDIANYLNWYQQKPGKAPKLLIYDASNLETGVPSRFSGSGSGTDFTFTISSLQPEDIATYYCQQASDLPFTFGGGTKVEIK

mKLK7 IC50 (protease inhibition) [1]: 1.48 nM
mKLK7 IC90 (protease inhibition) [1]: 26.5 nM
Kd [2]: 0.0253 nM
B7: KLK7-L5-Ab2 (antibody, V domains shown)
VH: QVQLVQSGAEVKKPGASVKVSCKASGYTFAGYDMHWVRQAPGQGLEWMGSINPTSGRTNYAQKFQGRVTMTRDTSISTAYMELSRLRSDDTAVYYCARGGPSTWYGGSAYTYYGADVWGQGTTVTVSS
VL: B6 VL with N94P

mKLK7 IC50 (protease inhibition) [1]: 3.42 nM
mKLK7 IC90 (protease inhibition) [1]: 19.8 nM
hKLK7 IC50 (protease inhibition) [3]: 1.69 nM
hKLK7 IC90 (protease inhibition) [3]: 6.11 nM
Kd [2]: 0.0354 nM
B11: KLK7-L1-Ab2 (antibody, V domains shown)
VH: B10 VH with T30G, S31P, E32Y, H35S, S50W, S54Y, H106W
VL: B10 VL with Q90G, F91S

mKLK7 IC50 (protease inhibition) [1]: 1.25 nM
mKLK7 IC90 (protease inhibition) [1]: 4.58 nM
Kd [2]: 0.0144 nM
B12: KLK7-L1-Ab6 (antibody, V domains shown)
VH: B10 VH with H106S
VL: B10 VL
